From PMC8452709, “Effects of apolipoprotein E isoform, sex, and diet on insulin BBB pharmacokinetics in mice” (Scientific Reports, 2021)

How the values were obtained:
[1] = test system: brain endothelial cell; assay: 125I-insulin reversible vascular binding (Vi), y-intercept of multiple-time regression; type: in vivo, mice (human E3- and E4-targeted replacement); settings: for Vi, reversible vascular binding: 15 mo, iv, albumin-corrected
Procedure: (§1) Ten micrograms of human insulin (Sigma-Aldrich, St. Louis, MO, USA) was diluted in 0.25 M chloride-free sodium phosphate buffer (PB), pH 7.5, and radioactivity labeled with 0.5–1 mCi Na^125I (Perkin Elmer, Waltham, MA, USA) using the chloramine-T (Sigma-Aldrich) method similar to our previously reported methods. […] Protein labelling by ^125I or by ^99mTc isotopes was characterized by 15% trichloroacetic acid (TCA) precipitation.
(§2) Mice were anesthetized with an intraperitoneal injection of 0.1–0.15 ml 40% urethane to minimize pain and distress. […] Blood from the left carotid artery was collected between 0.5 and 10 min after intravenous injection. Mice were immediately decapitated and their whole brains quickly removed and weighed. Each mouse provided a single blood sample and time matched brain sample. The arterial blood was centrifuged at 5400g for 10 min at 4 °C and serum collected. The brains were dissected into regions according to the method described in Ref.[56] and weighed. The levels of radioactivity in serum (50 μl) and brain regions were counted in a gamma counter (Wizard2, Perkin Elmer, Waltham, MA). […] Expt was calculated from the formula:1 Exposuretime=∫0tCptdt/Cpt, where Cp is the level of radioactivity (cpm) in serum at time (t). Expt corrects for the clearance of peptide from the blood. The influx of insulin was calculated by multiple-time regression analysis as described by Patlaket al.[55],[57]:2 Am/Cpt=Ki∫0tCptdt/Cpt+Vi, where Am is level of radioactivity (cpm) per g of brain tissue at time t, Cpt is the level of radioactivity (cpm) per ml arterial serum at time t, Ki (μl/g-min) is the steady-state rate of unidirectional solute influx from blood to brain. Vi (μl/g) is the level of rapid and reversible binding for brain which usually is a combination of vascular space plus any brain endothelial cell receptor binding. The brain/serum (B/S) ratios for insulin were corrected for vascular space by subtracting the corresponding ratio for albumin, yielding a delta B/S ratio. The linear portion of the relation between the delta B/S ratio versus Expt was used to calculate the Ki (μl/g-min) with its standard error term, and the y-intercept determined as representation of the Vi (μl/g)[55].
(§3) As a priori sex differences were expected, male and female data were analyzed separately. Regression analyses and other statistical analyses were performed with Prism 8.0 (GraphPad Software Inc., San Diego, CA, USA) and SPSS (Chicago, IL) software. Brain weight means are reported with their standard error terms and analyzed using two-way analysis of variance (ANOVA) followed by Sidak’s post hoc test when appropriate. For pharmacokinetic studies, the slope of the linear regression lines (Ki), reported with their correlation coefficients (r), and y-intercepts (Vi) were compared statistically using the Prism software, as described.

[2] = test system: blood–brain barrier (BBB); assay: 125I-insulin BBB transport, multiple-time regression analysis (Ki); type: in vivo, mice (human E3- and E4-targeted replacement); settings: for Ki, linear BBB transport (unidirectional influx rate): 15 mo, iv, albumin-corrected
Procedure: as §1, §2, §3

[3] = female E3 HFD mice, hippocampus
[4] = female E3 HFD mice, parietal cortex
[5] = female E3 HFD mice, pons/medulla
[6] = female E3 LFD mice, hippocampus
[7] = female E3 LFD mice, pons/medulla
[8] = female E4 HFD mice, frontal cortex
[9] = female E4 HFD mice, pons/medulla
[10] = female E4 LFD mice, hypothalamus
[11] = female E4 LFD mice, pons/medulla
[12] = male E3 HFD mice, occipital cortex
[13] = male E3 LFD mice, occipital cortex
[14] = male E3 LFD mice, olfactory bulb
[15] = male E4 LFD mice, parietal cortex

Substance: 125I-insulin: human insulin (Sigma-Aldrich) radioactively labeled with Na125I by the chloramine-T method
- Vi, reversible vascular binding [1, 3]: 5.8 µL/g
- Vi, reversible vascular binding ([1]; female E3 HFD mice, midbrain): 2.1 µL/g
- Vi, reversible vascular binding [1, 4]: 2.3 µL/g
- Vi, reversible vascular binding [1, 5]: 4.4 µL/g
- Vi, reversible vascular binding ([1]; female E3 LFD mice, frontal cortex): 6.3 µL/g
- Vi, reversible vascular binding [1, 6]: 5.1 µL/g
- Vi, reversible vascular binding ([1]; female E3 LFD mice, hypothalamus): -0.2 µL/g
- Vi, reversible vascular binding ([1]; female E3 LFD mice, olfactory bulb): 11.7 µL/g
- Vi, reversible vascular binding [1, 7]: 7.9 µL/g
- Vi, reversible vascular binding ([1]; female E3 LFD mice, striatum): 4.0 µL/g
- Vi, reversible vascular binding ([1]; female E3 LFD mice, thalamus): 8.4 µL/g
- Vi, reversible vascular binding [1, 8]: 5.2 µL/g
- Vi, reversible vascular binding ([1]; female E4 HFD mice, occipital cortex): 4.1 µL/g
- Vi, reversible vascular binding [1, 9]: 3.0 µL/g
- Vi, reversible vascular binding ([1]; female E4 LFD mice, hippocampus): 8.8 µL/g
- Vi, reversible vascular binding [1, 10]: 4.4 µL/g
- Vi, reversible vascular binding ([1]; female E4 LFD mice, midbrain): 5.4 µL/g
- Vi, reversible vascular binding ([1]; female E4 LFD mice, occipital cortex): 3.9 µL/g
- Vi, reversible vascular binding ([1]; female E4 LFD mice, parietal cortex): 7.9 µL/g
- Vi, reversible vascular binding [1, 11]: 9.4 µL/g
- Vi, reversible vascular binding ([1]; female E4 LFD mice, striatum): 6.3 µL/g
- Vi, reversible vascular binding ([1]; female E4 LFD mice, thalamus): 8.8 µL/g
- Vi, reversible vascular binding [1, 12]: 0.2 µL/g
- Vi, reversible vascular binding ([1]; male E3 HFD mice, olfactory bulb): 0.4 µL/g
- Vi, reversible vascular binding ([1]; male E3 HFD mice, pons/medulla): 1.7 µL/g
- Vi, reversible vascular binding ([1]; male E3 HFD mice, thalamus): 2.3 µL/g
- Vi, reversible vascular binding ([1]; male E3 LFD mice, frontal cortex): 4.0 µL/g
- Vi, reversible vascular binding [1, 13]: 5.0 µL/g
- Vi, reversible vascular binding [1, 14]: 5.9 µL/g
- Vi, reversible vascular binding ([1]; male E3 LFD mice, parietal cortex): 5.8 µL/g
- Vi, reversible vascular binding ([1]; male E4 HFD mice, pons/medulla): 3.4 µL/g
- Vi, reversible vascular binding ([1]; male E4 HFD mice, striatum): 4.2 µL/g
- Vi, reversible vascular binding ([1]; male E4 LFD mice, cerebellum): 8.1 µL/g
- Vi, reversible vascular binding ([1]; male E4 LFD mice, hypothalamus): 8.0 µL/g
- Vi, reversible vascular binding ([1]; male E4 LFD mice, occipital cortex): 4.1 µL/g
- Vi, reversible vascular binding [1, 15]: 3.4 µL/g
- Vi, reversible vascular binding ([1]; male E4 LFD mice, striatum): 4.4 µL/g
- Vi, reversible vascular binding ([1]; male E4 LFD mice, thalamus): 4.1 µL/g
- Whole brain reversible vascular binding (Vi, y-axis intercept) ([1]; males, between apoE isoform/diet groups, p = 0.002): differences
- Ki, linear BBB transport (unidirectional influx rate) ([2]; female E3 HFD mice, cerebellum): 1.34 µL/g/min
- Ki, linear BBB transport (unidirectional influx rate) [2, 3]: 0.96 µL/g/min
- Ki, linear BBB transport (unidirectional influx rate) ([2]; female E3 HFD mice, occipital cortex): 1.03 µL/g/min
- Ki, linear BBB transport (unidirectional influx rate) ([2]; female E3 HFD mice, olfactory bulb): 1.19 µL/g/min
- Ki, linear BBB transport (unidirectional influx rate) [2, 4]: 0.95 µL/g/min
- Ki, linear BBB transport (unidirectional influx rate) [2, 5]: 1.31 µL/g/min
- Ki, linear BBB transport (unidirectional influx rate) ([2]; female E3 HFD mice, striatum): 1.32 µL/g/min
- Ki, linear BBB transport (unidirectional influx rate) ([2]; female E3 HFD mice, thalamus): 0.91 µL/g/min
- Ki, linear BBB transport (unidirectional influx rate) ([2]; female E3 LFD mice, cerebellum): 1.17 µL/g/min
- Ki, linear BBB transport (unidirectional influx rate) [2, 6]: 1.43 µL/g/min
- Ki, linear BBB transport (unidirectional influx rate) ([2]; female E3 LFD mice, midbrain): 0.78 µL/g/min
- Ki, linear BBB transport (unidirectional influx rate) ([2]; female E3 LFD mice, occipital cortex): 0.73 µL/g/min
- Ki, linear BBB transport (unidirectional influx rate) ([2]; female E3 LFD mice, olfactory bulb, no significant transport (p > 0.05)): 1.06 µL/g/min
- Ki, linear BBB transport (unidirectional influx rate) ([2]; female E3 LFD mice, parietal cortex, no significant transport (p > 0.05)): 0.64 µL/g/min
- Ki, linear BBB transport (unidirectional influx rate) [2, 7]: 0.91 µL/g/min
- Ki, linear BBB transport (unidirectional influx rate) ([2]; female E3 LFD mice, striatum): 0.56 µL/g/min
- Ki, linear BBB transport (unidirectional influx rate) ([2]; female E3 LFD mice, thalamus, no significant transport (p > 0.05)): 0.71 µL/g/min
- Ki, linear BBB transport (unidirectional influx rate) ([2]; female E4 HFD mice, cerebellum): 1.04 µL/g/min
- Ki, linear BBB transport (unidirectional influx rate) [2, 8]: 0.62 µL/g/min
- Ki, linear BBB transport (unidirectional influx rate) ([2]; female E4 HFD mice, hypothalamus): 1.41 µL/g/min
- Ki, linear BBB transport (unidirectional influx rate) ([2]; female E4 HFD mice, olfactory bulb): 1.34 µL/g/min
- Ki, linear BBB transport (unidirectional influx rate) ([2]; female E4 HFD mice, parietal cortex): 0.92 µL/g/min
- Ki, linear BBB transport (unidirectional influx rate) [2, 9]: 1.27 µL/g/min
- Ki, linear BBB transport (unidirectional influx rate) ([2]; female E4 HFD mice, striatum, no significant transport (p > 0.05)): 0.85 µL/g/min
- Ki, linear BBB transport (unidirectional influx rate) ([2]; female E4 LFD mice, cerebellum): 1.63 µL/g/min
- Ki, linear BBB transport (unidirectional influx rate) [2, 10]: 1.12 µL/g/min
- Ki, linear BBB transport (unidirectional influx rate) ([2]; female E4 LFD mice, midbrain): 0.50 µL/g/min
- Ki, linear BBB transport (unidirectional influx rate) [2, 11]: 0.81 µL/g/min
- Ki, linear BBB transport (unidirectional influx rate) ([2]; female E4 LFD mice, striatum, no significant transport (p > 0.05)): 0.30 µL/g/min
- Whole brain BBB transport or vascular binding ([2]; females, effect of genotype or diet): no differences
- Ki, linear BBB transport (unidirectional influx rate) ([2]; male E3 HFD mice, cerebellum): 1.08 µL/g/min
- Ki, linear BBB transport (unidirectional influx rate) ([2]; male E3 HFD mice, hippocampus, no significant transport (p > 0.05)): 1.08 µL/g/min
- Ki, linear BBB transport (unidirectional influx rate) ([2]; male E3 HFD mice, hypothalamus, no significant transport (p > 0.05)): 0.57 µL/g/min
- Ki, linear BBB transport (unidirectional influx rate) ([2]; male E3 HFD mice, midbrain, no significant transport (p > 0.05)): 0.96 µL/g/min
- Ki, linear BBB transport (unidirectional influx rate) [2, 12]: 0.88 µL/g/min
- Ki, linear BBB transport (unidirectional influx rate) ([2]; male E3 HFD mice, parietal cortex, no significant transport (p > 0.05)): -0.07 µL/g/min
- Ki, linear BBB transport (unidirectional influx rate) ([2]; male E3 HFD mice, striatum, no significant transport (p > 0.05)): 0.04 µL/g/min
- Ki, linear BBB transport (unidirectional influx rate) ([2]; male E3 HFD mice, thalamus, no significant transport (p > 0.05)): 0.65 µL/g/min
- Ki, linear BBB transport (unidirectional influx rate) ([2]; male E3 LFD mice, cerebellum): 1.06 µL/g/min
- Ki, linear BBB transport (unidirectional influx rate) ([2]; male E3 LFD mice, hippocampus): 0.92 µL/g/min
- Ki, linear BBB transport (unidirectional influx rate) ([2]; male E3 LFD mice, hypothalamus): 1.22 µL/g/min
- Ki, linear BBB transport (unidirectional influx rate) ([2]; male E3 LFD mice, midbrain): 0.40 µL/g/min
- Ki, linear BBB transport (unidirectional influx rate) [2, 13]: 0.75 µL/g/min
- Ki, linear BBB transport (unidirectional influx rate) [2, 14]: 1.28 µL/g/min
- Ki, linear BBB transport (unidirectional influx rate) ([2]; male E3 LFD mice, pons/medulla): 1.41 µL/g/min
- Ki, linear BBB transport (unidirectional influx rate) ([2]; male E3 LFD mice, striatum, no significant transport (p > 0.05)): 0.59 µL/g/min
- Ki, linear BBB transport (unidirectional influx rate) ([2]; male E3 LFD mice, thalamus, no significant transport (p > 0.05)): 0.56 µL/g/min
- Ki, linear BBB transport (unidirectional influx rate) ([2]; male E4 HFD mice, hippocampus, no significant transport (p > 0.05)): 0.36 µL/g/min
- Ki, linear BBB transport (unidirectional influx rate) ([2]; male E4 HFD mice, hypothalamus, no significant transport (p > 0.05)): 0.35 µL/g/min
- Ki, linear BBB transport (unidirectional influx rate) ([2]; male E4 HFD mice, pons/medulla): 0.65 µL/g/min
- Ki, linear BBB transport (unidirectional influx rate) ([2]; male E4 HFD mice, striatum, no significant transport (p > 0.05)): -0.12 µL/g/min
- Ki, linear BBB transport (unidirectional influx rate) ([2]; male E4 LFD mice, frontal cortex): 0.65 µL/g/min
- Ki, linear BBB transport (unidirectional influx rate) ([2]; male E4 LFD mice, hippocampus): 1.28 µL/g/min
- Ki, linear BBB transport (unidirectional influx rate) ([2]; male E4 LFD mice, hypothalamus, no significant transport (p > 0.05)): 0.46 µL/g/min
- Ki, linear BBB transport (unidirectional influx rate) ([2]; male E4 LFD mice, midbrain): 0.53 µL/g/min
- Ki, linear BBB transport (unidirectional influx rate) [2, 15]: 0.73 µL/g/min
- Ki, linear BBB transport (unidirectional influx rate) ([2]; male E4 LFD mice, striatum, no significant transport (p > 0.05)): 0.57 µL/g/min
- Whole brain BBB transport rate (Ki) ([2]; males, decreases due to HFD, p = 0.056): did not reach significance
